Reference: publication PMC3341524

Molecular target: murine p35-HA alanine/serine-scan mutant A13 (mouse) (UniProt P43431)
Test: co-IP

B1: murine Ebi3, triple-FLAG tagged (natural protein)
chain: YTETALVALSQPRVQCHASRYPVAVDCSWTPLQAPNSTRSTSFIATYRLGVATQQQSQPCLQRSPQASRCTIPDVHLFSTVPYMLNVTAVHPGGASSSLLAFVAERIIKPDPPEGVRLRTAGQRLQVLWHPPASWPFPDIFSLKYRLRYRRRGASHFRQVGPIEATTFTLRNSKPHAKYCIQVSAQDLTDYGKPSDWSLPGQVESAPHKP
- decrease in IL-35 dimer formation against wild type: 30%
